Reference: patent US20200291116A1 (ABEXXA BIOLOGICS, published 2020)

Tests used:
[1] = biological target: T1, HLA-E*0103 (extracellular domain with beta-2-microglobulin, recombinant) (human); test: peptide binding and in vitro refolding
[2] = biological target: T1, HLA-E*0103 (extracellular domain with …); test: in vitro refold, Superdex 75, SEC-HPLC, 3D12 binding

Binder | binding result [1] | binding result [2]
YLLPAIVHI [peptide YLLPAIVHI (RNA Helicase p68)] | binds | 
GLADKVYFL [peptide GLADKVYFL (CAD protein)] |  | binds
